Reference: patent publication US11156615B2 (priority 2015, dated 2021)
Changes are numbered by the printed parent chain. Each block holds one molecule with its values, some of them ahead of it.

Experiments:
[1] = Glucose-dependent fluorescence emission intensity spectra of conjugates (Nanodrop3300); assay type: biochemical; settings: Nanodrop3300
Excerpt: Semi-synthetic FRSs were engineered by site-specifically attaching thiol-reactive, environmentally sensitive fluorophores that respond to ligand-mediated conformational changes. Identification of FRS candidates that are useful for sensing applications comprises three steps: • 1. Cysteine scan. Mutant glucose-binding proteins containing single cysteines are constructed for site-specific attachment of thiol-reactive fluorophores. […] Candidate positions fall into three classes: endosteric, replacing a residue that contacts the ligand directly; peristeric, located at the rim of the binding site; allosteric (Marvin et al. 1997 Proc Natl Acad Sci USA, 94, 4366-71; Marvin 1998 J Am Chem Soc, 120, 7-11), located outside the binding site at sites that undergo local structural changes in concert with the hinge-bending motion. • 2. Fluorophore screening. Thiol-reactive, environmentally sensitive fluorophores are attached to each cysteine mutant prepared in step 1. • 3. Evaluation of the glucose-mediated change of all the fluorescent conjugates prepared in step 2. Responses to ligand binding in which there is both a change in fluorescence emission intensity and spectral shape was essential for chemometric applications, because such changes enable ratiometric measurements. Changes in spectral shape typically are accompanied by a shift in the wavelength of the emission intensity maxima. Three classes of fluorescent responses are possible: • i. No response. • ii. Monochromatic response (emission intensity increases or decreases without a change in spectral shape) • iii.

[2] = Galactose binding: isothermal fluorescence titrations of conjugates; set-up: key to Galactose trueKd: nb, no bonding; settings: for S, selectivity = trueKd(galactose)/trueKd(glucose): S > 1, selective for glucose; for Kd: read-out: Galactose trueKd
[3] = Thermostability: mid-point thermal denaturation temperature (Tm) from temperature-dependent fluorescence (Roche LightCycler); assay type: physicochemical; settings: apo-protein
Excerpt: Protein (un)folding is monitored by binding of SYPRO to the unfolded state as a function of temperature. Fluorescence intensity increases upon binding of SYPRO by the unfolded state.
Panels A-C: ttGBP182C.2.0-Imm0; Panels D-F: ttGBP182C.2.0-Imm1 (see FIG. 13). (A) Solution (Tm=347.6K). (B) Immobilized on Nickel-nitriloacetic acid (Ni-NTA) beads (Tm=346.7K). (C) Reconstituted, desiccated Ni-NTA beads (Tm=347.6K). (D) Fluorescence response of ttGGBP5.2 Imm1 immobilized on NHS-functionalized agarose beads. Data was collected on a Roche LightCycler real-time PCS instrument, recording emission intensities at 488 nm and 510 nm as a function of temperature in a 384-well microtiter plate. […] Temperature melts of twelve different wells. Apo protein thermostability as reported by the denaturation mid-point temperature is 349 K, similar to the protein free in solution. […] (F) Representative Langmuir ligand-binding curve extracted from the three-dimensional data.
Temperatures were advanced in 1K steps. […] Under these experimental photobleaching was not observed.

[4] = Glucose binding: isothermal fluorescence titrations, ratiometric (appKd) and monochromatic (trueKd) fits; settings: room temperature
Excerpt: 2 For a single glucose-binding site, the fractional saturation is given by
[formula] where ^apoIλ2 and ^satIλ2 are the emission intensities of the monochromatic signal at wavelength λ2 of the ligand-free and ligand-bound protein, respectively.

[5] = Acrylodan conjugate of ttGGBP.17C mutant
[6] = Badan conjugate of ttGGBP.17C mutant
[7] = Acrylodan conjugate, monochromatic titration curves, room temperature
[8] = Badan conjugate, monochromatic titration curves, room temperature
[9] = read-out: Glucose appKd, Acrylodan conjugate, dichromatic ratiometry
[10] = read-out: Glucose appKd, Badan conjugate, dichromatic ratiometry
[11] = read-out: Glucose trueKd, Acrylodan conjugate, monochromatic titration curves
[12] = read-out: Glucose trueKd, Badan conjugate, monochromatic titration curves

S, selectivity = trueKd(galactose)/trueKd(glucose) ([2]; Acrylodan conjugate): 0.28 | S, selectivity = trueKd(galactose)/trueKd(glucose) ([2]; Badan conjugate): 0.48 | Kd [2, 7]: 5 mM | Kd [2, 8]: 5.2 mM | Kd [4, 9]: 15 mM | Kd [4, 10]: 8.6 mM | Kd [4, 11]: 18 mM | Kd [4, 12]: 10.8 mM
B1: ttGGBP17C.2: affinity-tuning mutant, 17C background, SEQ ID NO: 67 (protein)
chain: MKQLNIGVAIYKFDDTCMTGVRNAMTAEAQGKAKLNMVDSQNSQPTQNDQVDLFITKKMNALAINPVDPTAAGTIIDKAKQANIPVVFFNREPLPEDMKKWDKVYYVGAKAEQSGILQGQIMADYWKAHPEADKNHDGVMQYVMLMGQPGHPDAILRTQYSIQTVKDAGIKVQELAKDYANWDRVTAHDKMAAWLSSFGDKIEAVFANNDDMALGAIEALKSAGYFTGNKYIPVVGVDATAPGIQAIKDGTLLGTVLNDAKNQAKATFNIAYELAQGITPTKDNIGYDITDGKYVWIPYKKITKDNISDAEQGGSHHHHHH
modifications: ttGGBP17C.2 (affinity-tuning mutant, 17C background (Table 6) with signal peptide replaced with M and GGSHHHHHH at C-terminus)
Type of fluorescence response to glucose [1, 5]: d (d, intensity decrease only) | Type of fluorescence response to glucose [1, 6]: r(h) (r(h), ratiometric (hypsochromic shift)) | apoTm ([3]; Badan conjugate): 350 K

Kd [4, 10]: 0.6 mM | Kd [4, 12]: 0.8 mM
B2: ttGGBP17C.1: affinity-tuning mutant, 17C background, SEQ ID NO: 66 (protein)
chain: B1 chain with P69R, R91K, Q148E, P152Q
modifications: ttGGBP17C.1 (affinity-tuning mutant, 17C background (Table 6) with signal peptide replaced with M and GGSHHHHHH at C-terminus)
Type of fluorescence response to glucose [1, 5]: d (d, intensity decrease only) | Type of fluorescence response to glucose [1, 6]: r(h) (r(h), ratiometric (hypsochromic shift))

Kd [2, 8]: 29 mM
B3: ttGGBP17C.24: affinity-tuning mutant, 17C background, SEQ ID NO: 82 (protein)
chain: B1 chain with P69R, P152Q, A260R
modifications: ttGGBP17C.24 (affinity-tuning mutant, 17C background (Table 6) with signal peptide replaced with M and GGSHHHHHH at C-terminus)
Type of fluorescence response to glucose [1, 6]: i (i, intensity increase only) | apoTm ([3]; Badan conjugate): 344 K

Kd [4, 9]: 0.04 mM | Kd [4, 11]: 0.04 mM
B4: ttGGBP17C.11: affinity-tuning mutant, 17C background, SEQ ID NO: 76 (protein)
chain: B1 chain with P69R, P152Q, T240A
modifications: ttGGBP17C.11 (affinity-tuning mutant, 17C background (Table 6) with signal peptide replaced with M and GGSHHHHHH at C-terminus)
Type of fluorescence response to glucose [1, 5]: d (d, intensity decrease only) | apoTm ([3]; Acrylodan conjugate): 348 K

B5: ttGGBP17C.29: affinity-tuning mutant, 17C background, SEQ ID NO: 87 (protein)
chain: B1 chain with P69R, P152Q, A260S
modifications: ttGGBP17C.29 (affinity-tuning mutant, 17C background (Table 6) with signal peptide replaced with M and GGSHHHHHH at C-terminus)
Type of fluorescence response to glucose [1, 6]: i (i, intensity increase only) | apoTm ([3]; Badan conjugate): 343 K

Galactose trueKd [2, 8]: nb^e | Kd [4, 10]: 3.2 mM | Kd [4, 12]: 3.7 mM
B6: ttGGBP17C.25: affinity-tuning mutant, 17C background, SEQ ID NO: 83 (protein)
chain: B1 chain with P69R, P152Q, A260K
modifications: ttGGBP17C.25 (affinity-tuning mutant, 17C background (Table 6) with signal peptide replaced with M and GGSHHHHHH at C-terminus)
Type of fluorescence response to glucose [1, 6]: i (i, intensity increase only)

Kd [2, 7]: 0.53 mM | Kd [2, 8]: 2.5 mM | Kd [4, 9]: 1.4 mM | Kd [4, 10]: 3.4 mM | Kd [4, 12]: 4.1 mM
B7: ttGGBP17C.3: affinity-tuning mutant, 17C background, SEQ ID NO: 68 (protein)
chain: B1 chain with T16N, P69R, P152Q, D211A
modifications: ttGGBP17C.3 (affinity-tuning mutant, 17C background (Table 6) with signal peptide replaced with M and GGSHHHHHH at C-terminus)
Type of fluorescence response to glucose [1, 5]: d (d, intensity decrease only) | Type of fluorescence response to glucose [1, 6]: r(h) (r(h), ratiometric (hypsochromic shift)) | apoTm ([3]; Badan conjugate): 346 K

Kd [4, 10]: 12 mM | Kd [4, 12]: 15 mM
B8: ttGGBP17C.22: affinity-tuning mutant, 17C background, SEQ ID NO: 80 (protein)
chain: B1 chain with P69R, P152Q, A260N
modifications: ttGGBP17C.22 (affinity-tuning mutant, 17C background (Table 6) with signal peptide replaced with M and GGSHHHHHH at C-terminus)
Type of fluorescence response to glucose [1, 6]: i (i, intensity increase only) | apoTm ([3]; Badan conjugate): 343 K

Kd [4, 9]: 6 mM | Kd [4, 10]: 16 mM | Kd [4, 11]: 6 mM | Kd [4, 12]: 16 mM
B9: ttGGBP17C.5: affinity-tuning mutant, 17C background, SEQ ID NO: 70 (protein)
chain: B1 chain with D15A, P69R, P152Q
modifications: ttGGBP17C.5 (affinity-tuning mutant, 17C background (Table 6) with signal peptide replaced with M and GGSHHHHHH at C-terminus)
Type of fluorescence response to glucose [1, 5]: r(h) (r(h), ratiometric (hypsochromic shift)) | Type of fluorescence response to glucose [1, 6]: r(h) (r(h), ratiometric (hypsochromic shift)) | apoTm ([3]; Acrylodan conjugate): 348 K | apoTm ([3]; Badan conjugate): 345 K

B10: ttGGBP17C.10: affinity-tuning mutant, 17C background, SEQ ID NO: 75 (protein)
chain: B1 chain with G20A, P69R, P152Q
modifications: ttGGBP17C.10 (affinity-tuning mutant, 17C background (Table 6) with signal peptide replaced with M and GGSHHHHHH at C-terminus)
Type of fluorescence response to glucose [1, 5]: d (d, intensity decrease only) | apoTm ([3]; Acrylodan conjugate): 351 K

S, selectivity = trueKd(galactose)/trueKd(glucose) ([2]; Acrylodan conjugate): 0.29 | S, selectivity = trueKd(galactose)/trueKd(glucose) ([2]; Badan conjugate): 2.2 | Kd [2, 7]: 14 mM | Kd [2, 8]: 14 mM | Kd [4, 9]: 50 mM | Kd [4, 10]: 16 mM | Kd [4, 11]: 48 mM | Kd [4, 12]: 6.4 mM
B11: ttGGBP17C.4: affinity-tuning mutant, 17C background, SEQ ID NO: 69 (protein)
chain: B1 chain with P69R, H151Q, P152Q
modifications: ttGGBP17C.4 (affinity-tuning mutant, 17C background (Table 6) with signal peptide replaced with M and GGSHHHHHH at C-terminus)
Type of fluorescence response to glucose [1, 5]: r(h) (r(h), ratiometric (hypsochromic shift)) | Type of fluorescence response to glucose [1, 6]: r(h) (r(h), ratiometric (hypsochromic shift)) | apoTm ([3]; Badan conjugate): 347 K
